Here are results for seven molecules from US20260139048A1 (NANJING LEGEND BIOTECH, published 2026).

One may read the Kd as the constant that tells how readily two partners part at equilibrium. The term koff denotes a measure of how fast the partners let go of each other. Lower therefore signals slow dissociation. In general, kon refers to a measure of how fast the partners come together. High values mean fast association, low ones slow association. A word on the EC50: it is the concentration that produces a half-maximal response. High values mean lower potency in that assay, low ones higher potency in that assay. For orientation: IC50 means the concentration at which inhibition is half-maximal.

The target of test [1] is T1, His-tagged human TIGIT (human, UniProt Q495A1 22-141).
T1 construct: SPR analyte; also called human TIGIT protein; not shown: His tag
T1 sequence: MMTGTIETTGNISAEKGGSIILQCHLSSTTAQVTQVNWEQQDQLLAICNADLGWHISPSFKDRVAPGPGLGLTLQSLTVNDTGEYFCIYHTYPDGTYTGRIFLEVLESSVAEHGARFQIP
In words: SPR experiment 3, IgG from HEK293 supernatant. In general terms: Surface plasmon resonance follows binding to a sensor surface in real time, without labels.

The target of test [2] is T1, His-tagged human TIGIT. In words: SPR experiment 3, IgG from HEK293 supernatant captured.
The target of test [3] is T1, His-tagged human TIGIT. In words: SPR experiment 1, IgG from HEK293 supernatant captured.
Test [4] deals with T1, His-tagged human TIGIT. In words: SPR experiment 2, IgG from HEK293 supernatant captured.
Test [5] concerns the target T2, TIGIT on TIGIT-over expressing NFAT-Luc/Jurkat effector cells (GenScript reporter cell line) (UniProt Q495A1 22-244, limits assumed).
T2 sequence (looked up): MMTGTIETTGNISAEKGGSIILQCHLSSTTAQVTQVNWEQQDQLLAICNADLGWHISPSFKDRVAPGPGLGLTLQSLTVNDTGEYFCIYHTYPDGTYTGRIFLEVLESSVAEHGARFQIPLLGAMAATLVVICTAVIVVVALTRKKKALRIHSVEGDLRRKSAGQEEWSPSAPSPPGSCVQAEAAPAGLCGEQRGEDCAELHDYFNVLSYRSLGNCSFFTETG
In words: cell-based or functional assay.

Test [6] concerns the target T2, TIGIT on TIGIT-over expressing …. In words: cell-based or functional assay. The source holds these as a separate data set.
Test [7] deals with T3, human TIGIT expressed on CHO-K1 cells (human, UniProt Q495A1 22-244).
T3 construct: whole, on cells; also called human TIGIT-CHO-K1 cells; human TIGIT over-expressing cell line
T3 sequence (looked up): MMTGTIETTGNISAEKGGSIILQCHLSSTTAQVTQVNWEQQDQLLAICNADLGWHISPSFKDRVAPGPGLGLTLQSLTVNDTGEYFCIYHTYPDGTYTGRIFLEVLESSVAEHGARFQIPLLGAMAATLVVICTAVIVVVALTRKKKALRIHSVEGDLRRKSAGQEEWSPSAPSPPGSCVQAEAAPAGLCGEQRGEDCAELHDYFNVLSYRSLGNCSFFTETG
In words: flow cytometry on CHO-K1 cells expressing human TIGIT. (A flow cytometer gives signals particle by particle.)

The target of test [8] is T3, human TIGIT expressed on CHO-K1 cells. The test is described as above. This is another data set of the same source.
For test [9], the target named is T1, His-tagged human TIGIT. Nature of the test: SPR experiment 1, IgG from HEK293 supernatant captured. This is another data set of the same source.
Test [10] deals with T1, His-tagged human TIGIT. In words: SPR experiment 2, IgG from HEK293 supernatant captured. The source holds these as a separate data set.
Test [11] has as its target T4, cynomolgus TIGIT expressed on CHO-K1 cells (cynomolgus, UniProt A0A7N9I9V4 89-312).
T4 construct: whole, on cells; also called cynomolgus TIGIT over-expressing cell line
In words: flow cytometry on CHO-K1 cells expressing cynomolgus TIGIT.

Test [12] concerns the target T4, cynomolgus TIGIT expressed on CHO-K1 …. Described as above. This is another data set of the same source.
The target of test [13] is T1, His-tagged human TIGIT. In words: SPR (Biacore T200), antibody captured, His-tagged TIGIT analyte.
Test [14] deals with T5, His-tagged cynomolgus TIGIT (cynomolgus, UniProt A0A7N9I9V4 89-209).
T5 construct: SPR analyte; also called cynomolgus TIGIT protein; not shown: His tag
The description is as above.

Test [15] has as its target T1, His-tagged human TIGIT. The description is as above. This is another data set of the same source.
For test [16], the target named is T5, His-tagged cynomolgus TIGIT. The test is described as above. This is another data set of the same source.
The target of test [17] is T3, human TIGIT expressed on CHO-K1 cells. In words: flow cytometry competition: biotinylated CD155-Fc on human TIGIT-CHO-K1 cells.
For test [18] the target is unchanged. The description is as above. The source holds these as a separate data set.
Test [19] addresses T1, His-tagged human TIGIT. Nature of the test: SPR experiment 4, IgG from HEK293 supernatant captured.
Test [20] has as its target T4, cynomolgus TIGIT expressed on CHO-K1 …. Nature of the test: flow cytometry on TIGIT over-expressing CHO-K1 cells.
Test [21] concerns the target T1, His-tagged human TIGIT. In words: SPR experiment 2, IgG from HEK293 supernatant captured. The source holds these as a separate data set.
For test [22], the target named is T1, His-tagged human TIGIT. In words: SPR, IgG from HEK293 supernatant; against 19VH + 19VL.

Like-named read-outs stand apart in the source and are kept apart here. Where only a bound is given, the exact number is not on record here.

T5 sequence (A0A7N9I9V4 entry or part of it): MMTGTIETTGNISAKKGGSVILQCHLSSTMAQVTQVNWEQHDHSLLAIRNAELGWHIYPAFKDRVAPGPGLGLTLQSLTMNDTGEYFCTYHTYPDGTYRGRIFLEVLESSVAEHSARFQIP
T4 sequence (A0A7N9I9V4 entry or part of it): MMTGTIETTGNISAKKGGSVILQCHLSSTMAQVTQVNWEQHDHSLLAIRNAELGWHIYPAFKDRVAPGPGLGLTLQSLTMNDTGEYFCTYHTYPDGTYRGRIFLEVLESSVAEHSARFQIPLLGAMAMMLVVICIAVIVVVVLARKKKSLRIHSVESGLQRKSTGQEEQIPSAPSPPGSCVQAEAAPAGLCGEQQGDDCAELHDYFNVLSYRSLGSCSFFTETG

B1: reshaped TIGIT-3 antibody 3VH3 + 3VL1 (antibody, V domains shown)
VH: EVQLVESGGGLVQPGGSLRLSCAASGFTFSSYGMSWVRQAPGKGLELVATIKSDGGSTNLPDSVKGRFTISRDNSKNTLYLQMNSLRAEDTAVYYCVRGYFDYWGQGTTVTVSS
VL: DIQMTQSPSSLSASVGDRVTITCKASQDVKTAVAWYQQKPGKVPKLLIYWSSTRHTGVPSRFSGSGSGTDFTLTISSLQPEDVATYYCQQYYSTPYTFGGGTKVEIK
notes: Full-length IgG, tested as HEK293 supernatant
The molecule B1 showed a fold affinity decrease in test [1] of approximately 100 fold. In test [2], the Kd stood at 36 nM, the off-rate constant (koff) was 0.0076 s⁻¹ and the kon turned out to be 210000 M⁻¹ s⁻¹.

B2: reshaped TIGIT-3 antibody 3VH3 + 3VL (antibody, V domains shown)
VH: EVQLVESGGGLVQPGGSLRLSCAASGFTFSSYGMSWVRQAPGKGLELVATIKSDGGSTNLPDSVKGRFTISRDNSKNTLYLQMNSLRAEDTAVYYCVRGYFDYWGQGTTVTVSS
VL: DIVMTQSHKFMSTSVGDRVSITCKASQDVKTAVAWYQQKPGQSPKLLIYWSSTRHTGVPDRFTGSRSLTDHTLTISSVQAEDLALYYCQQYYSTPYTFGGGTKLELK
notes: as for B1
In test [3], B2 returned a Kd of 0.25 nM, a koff of 0.00015 s⁻¹ and a kon of 580000 M⁻¹ s⁻¹. In test [4], this molecule showed a Kd of 0.48 nM, a koff of 0.00025 s⁻¹ and a kon of 520000 M⁻¹ s⁻¹.

B3: reshaped TIGIT-3 antibody 3VH3.M4 + 3VL (antibody, V domains shown)
VH: EVQLVESGGGLVQPGGSLRLSCAASGFTFSSYGMSWVRQAPGKGLELVATIKSSGGSTNLADSVKGRFTISRDNSKNTLYLQMNSLRAEDTAVYYCVRGYFDYWGQGTTVTVSS
VL: DIVMTQSHKFMSTSVGDRVSITCKASQDVKTAVAWYQQKPGQSPKLLIYWSSTRHTGVPDRFTGSRSLTDHTLTISSVQAEDLALYYCQQYYSTPYTFGGGTKLELK
notes: as for B1
In [4], B3 came in with a Kd of 0.36 nM, a koff of 0.00016 s⁻¹ and a kon of 450000 M⁻¹ s⁻¹.

B4: TIGIT-19 chimeric antibody (antibody, human IgG1, kappa, V domains shown)
VH: QVQLQQPGPELVKPGTSVMLSCKASGYAFSRYSMYWVKQSHGKSLEWIAFIDPYNGGSTYNQRFRGKATLTVDKSSSTAYMHLNTLTSDDSAVYYCARGGDYGWYLGVWGAGTTVTVSS
VL: DIQMTQSPASLSASVGETVTITCRPSENIYTYLSWYQQKRGKSPQLLVYNAKTLPENVPSRFSGSGSGTQFSLKIDSLQPEDFGNYYCQHHYGNPLTFGAGTKLELKR
notes: also called 19VH + 19VL
In the case of B4, the “Bottom (RLU)” value was found to be 11100 RLU in [5] and 47600 RLU in [6]. Besides, the “EC50” value came to 3.28 nM in test [5]; 2.75 nM in test [6]; 0.41 nM in [7]; 0.311 nM in test [8]; 1.05 nM in test [11]; 0.524 nM in [12]. The entries for the “Top (RLU)” value in test [5] and in test [6] were 41600 RLU and 130000 RLU, respectively. Moreover, the Kd was 0.071 nM in [9]; 0.12 nM in test [10]; 0.071 nM in [13]; 0.091 nM in test [14]; 0.04 nM in test [15]; 0.032 nM in [16]. The koff is 9.7e-05 s⁻¹ in test [9]; 0.00015 s⁻¹ in test [10]; 0.0001 s⁻¹ in test [13]; 6.6e-05 s⁻¹ in [14]; 5.9e-05 s⁻¹ in [15]; 3.2e-05 s⁻¹ in [16]. Besides, the kon was determined as 1.4e+06 M⁻¹ s⁻¹ in test [9]; 1.2e+06 M⁻¹ s⁻¹ in [10]; 1.5e+06 M⁻¹ s⁻¹ in [13]; 730000 M⁻¹ s⁻¹ in test [14]; 1.5e+06 M⁻¹ s⁻¹ in [15]; 1e+06 M⁻¹ s⁻¹ in [16]. For the same molecule, the values for the IC50 in [17] and in [18] were 0.4 nM and 0.26 nM, respectively.

B5: TIGIT-3 chimeric antibody (antibody, human IgG1, kappa, V domains shown)
VH: EVQLVESGGGLVQPGGSLKLSCAASGFTFSSYGMSWVRQTPDKRLELVATIKSDGGSTNLPDSVKGRFTISRDNAKNTLHLQMSSLKSEDTAMYYCVRGYFDYWGQGTSVTVSS
VL: DIVMTQSHKFMSTSVGDRVSITCKASQDVKTAVAWYQQKPGQSPKLLIYWSSTRHTGVPDRFTGSRSLTDHTLTISSVQAEDLALYYCQQYYSTPYTFGGGTKLELKR
notes: also called 3VH + 3VL
As for B5, the “Bottom (RLU)” value came to 11200 RLU in test [5] and 55800 RLU in test [6]. In addition, the “EC50” value in test [5] was 2.77 nM; in test [6], 2.1 nM; in [7] it was 0.53 nM; in [8], 0.346 nM; in test [11], 2 nM; in [12], 1.42 nM. Besides, the “Top (RLU)” value in test [5] came to 42800 RLU; in [6] it was 148000 RLU. Further, the Kd in test [3] worked out at 0.24 nM; in test [19], 0.28 nM; in test [13], 0.081 nM; in test [14], 1.8 nM; in test [15], 0.075 nM; in [16], 0.45 nM. The koff in [3] is 0.00012 s⁻¹; in [19] it was 0.00017 s⁻¹; in test [13], 5.9e-05 s⁻¹; in test [14] it was 0.0002 s⁻¹; in test [15], 4.7e-05 s⁻¹; in test [16], 5.3e-05 s⁻¹. The kon turned out to be 510000 M⁻¹ s⁻¹ in test [3]; 610000 M⁻¹ s⁻¹ in [19]; 730000 M⁻¹ s⁻¹ in [13]; 110000 M⁻¹ s⁻¹ in [14]; 630000 M⁻¹ s⁻¹ in test [15]; 120000 M⁻¹ s⁻¹ in [16]. In addition, the IC50 in test [17] worked out at 0.38 nM; in [18], 0.558 nM.

B6: huTIGIT-6-4 (antibody, human IgG1, kappa, V domains shown)
VH: QVQLVQSGAEVKKPGASVKVSCKASGYTFTENAMHWVRQAPGQRLEWIGGINPNNAGTSYSQKFQGRATLTVDTSASTAYMELSSLRSEDTAVYYCTRSSYYRYDLDYWGQGTTVTVSS
VL: DIQMTQSPSSLSASVGDRVTITCQASQDIKTALAWYQQKPGKAPKLLIYSASYRYTGVPSRFSGSGSGTDFTFTISSLQPEDIATYYCHQHYTTPWTFGGGTKLEIKR
notes: Humanized IgG; also called 6VH6.M7 + 6VL1.M1
In the case of B6, in test [6], the “Bottom (RLU)” value turned out to be 46800 RLU, a half-maximal response (EC50) required 14.8 nM and the “Top (RLU)” value was 128000 RLU. The “fold EC50 on cynomolgus against human TIGIT cell line” value in [20] is more than 10 fold. The molecule further had an EC50 in [8] of 1.02 nM. In test [21], the Kd is 0.75 nM, the koff was 0.00023 s⁻¹ and the kon was 300000 M⁻¹ s⁻¹. In test [12], this molecule gave an EC50 of 16.7 nM. In addition, in test [15], the Kd was found to be 0.58 nM, the koff stood at 0.00019 s⁻¹ and the kon was 330000 M⁻¹ s⁻¹. Besides, in test [16], the Kd amounted to 260 nM, the koff was 0.013 s⁻¹ and the kon was found to be 47000 M⁻¹ s⁻¹. In test [18], this molecule showed an IC50 of 1.17 nM.

B7: humanized TIGIT-19 antibody 19VH4 + 19VL1 (antibody, V domains shown)
VH: QVQLVQSGAEVKKPGASVKVSCKASGYAFSRYSMYWVRQAPGQGLEWIAFIDPYNGGSTYNQRFRGKATLTVDTSISTAYMELSRLRSDDTAVYYCARGGDYGWYLGVWGQGTLVTVSS
VL: DIQMTQSPSSLSASVGDRVTITCRPSENIYTYLSWYQQKPGKAPKLLIYNAKTLPEGVPSRFSGSGSGTDFTLTISSLQPEDFATYYCQHHYGNPLTFGQGTKVEIK
notes: as for B1
Regarding B7, the “fold improvement of binding affinity” value in test [22] is approximately 4 fold. For the same molecule, in test [9], the Kd is 0.0196 nM, the koff is 2.51e-05 s⁻¹ and the kon was 1.28e+06 M⁻¹ s⁻¹. In [10], this molecule had a Kd of 0.028 nM, a koff of 3.3e-05 s⁻¹ and a kon of 1.2e+06 M⁻¹ s⁻¹.
